Source: US20240117018A1

Experiments:
Assay in all cases: cell-based or functional assay
[1] = biological target: HIV-1 Env pseudovirus CNE21 (HIV-1)
[2] = biological target: HIV-1 Env pseudovirus 1054_07_TC4_1499 (HIV-1)
[3] = biological target: HIV-1 Env pseudovirus 6244_13_B5_4576 (HIV-1)
[4] = biological target: HIV-1 Env pseudovirus THRO4156.18 (HIV-1)
[5] = biological target: HIV-1 Env pseudovirus 6240_08_TA5_4622 (HIV-1)
[6] = biological target: HIV-1 Env pseudovirus ZM249M.PL1 (HIV-1)
[7] = biological target: HIV-1 Env pseudovirus Q769.d22 (HIV-1)
[8] = biological target: HIV-1 Env pseudovirus 246F C1G (HIV-1)
[9] = biological target: HIV-1 Env pseudovirus Ce1086_B2 (HIV-1)
[10] = biological target: HIV-1 Env pseudovirus RHPA4259.7 (HIV-1)
[11] = biological target: HIV-1 Env pseudovirus CNE30 (HIV-1)
[12] = biological target: HIV-1 Env pseudovirus REJO4541.67 (HIV-1)
[13] = biological target: HIV-1 Env pseudovirus P0402_c2_11 (HIV-1)
[14] = biological target: HIV-1 Env pseudovirus X2131_C1_B5 (HIV-1)
[15] = biological target: HIV-1 Env pseudovirus X2088_c9 (HIV-1)
[16] = biological target: HIV-1 Env pseudovirus T278-50 (HIV-1)
[17] = biological target: HIV-1 Env pseudovirus T255-34 (HIV-1)
[18] = biological target: HIV-1 Env pseudovirus CNE5 (HIV-1)
[19] = biological target: HIV-1 Env pseudovirus 6041.v3.c23 (HIV-1)

With N49P7.2 (antibody) the IC50 [1] was 48.3 µg/mL, the IC80 [1] was over 50 µg/mL and the MPI [1] was 51. It also gave an IC50 [2] of 2.04 µg/mL, an IC80 [2] of 10.7 µg/mL and an MPI [2] of 99. For the same substance, the IC50 [3] was 0.331 µg/mL, the IC80 [3] was 1.04 µg/mL and the MPI [3] was 100. It also gave an IC50 [4] of 6.29 µg/mL, an IC80 [4] of 33.3 µg/mL and an MPI [4] of 94. It also gave an IC50 [5] of 0.812 µg/mL, an IC80 [5] of 2.87 µg/mL and an MPI [5] of 100. It also gave an IC50 [6] of 0.073 µg/mL, an IC80 [6] of 0.256 µg/mL and an MPI [6] of 100. For the same substance, the IC50 [7] was 0.029 µg/mL, the IC80 [7] was 0.14 µg/mL and the MPI [7] was 100. For the same substance, the IC50 [8] was 0.049 µg/mL, the IC80 [8] was 0.192 µg/mL and the MPI [8] was 100. It also gave an IC50 [9] of 0.166 µg/mL, an IC80 [9] of 1 µg/mL and an MPI [9] of 100. The IC50 [10] was 0.1 µg/mL, the IC80 [10] was 0.289 µg/mL and the MPI [10] was 100. For the same substance, the IC50 [11] was 0.362 µg/mL, the IC80 [11] was 1.2 µg/mL and the MPI [11] was 100. The IC50 [12] was 0.018 µg/mL, the IC80 [12] was 0.08 µg/mL and the MPI [12] was 100.

Substance N49P11 (antibody) has an IC50 [1] of 7.4 µg/mL, an IC80 [1] of 21.9 µg/mL and an MPI [1] of 100. For the same substance, the IC50 [2] was 2.92 µg/mL, the IC80 [2] was 13.1 µg/mL and the MPI [2] was 100. It also gave an IC50 [3] of 1.12 µg/mL, an IC80 [3] of 5.45 µg/mL and an MPI [3] of 100. The IC50 [4] was 1.84 µg/mL, the IC80 [4] was 10.4 µg/mL and the MPI [4] was 100. It also gave an IC50 [5] of 0.72 µg/mL, an IC80 [5] of 3 µg/mL and an MPI [5] of 100. It also gave an IC50 [6] of 3.64 µg/mL, an IC80 [6] of 17.4 µg/mL and an MPI [6] of 100. For the same substance, the IC50 [7] was 0.048 µg/mL, the IC80 [7] was 0.308 µg/mL and the MPI [7] was 100. The IC50 [8] was 8.48 µg/mL, the IC80 [8] was 20.9 µg/mL and the MPI [8] was 100. The IC50 [9] was 2.19 µg/mL, the IC80 [9] was 11.7 µg/mL and the MPI [9] was 100. The IC50 [10] was 0.202 µg/mL, the IC80 [10] was 0.956 µg/mL and the MPI [10] was 100. It also gave an IC50 [11] of 0.889 µg/mL, an IC80 [11] of 4.45 µg/mL and an MPI [11] of 100. For the same substance, the IC50 [12] was 10.8 µg/mL, the IC80 [12] was 27.1 µg/mL and the MPI [12] was 100.

N49P18.1 (antibody) showed an IC50 [1] of 7.93 µg/mL, an IC80 [1] of 29.2 µg/mL and an MPI [1] of 95. It also gave an IC50 [2] of over 50 µg/mL, an IC80 [2] of over 50 µg/mL and an MPI [2] of 0. It also gave an IC50 [3] of 33.4 µg/mL, an IC80 [3] of over 50 µg/mL and an MPI [3] of 61. For the same substance, the IC50 [4] was over 50 µg/mL, the IC80 [4] was over 50 µg/mL and the MPI [4] was 19. For the same substance, the IC50 [5] was 35.2 µg/mL, the IC80 [5] was over 50 µg/mL and the MPI [5] was 60. The IC50 [6] was 4.16 µg/mL, the IC80 [6] was 19.8 µg/mL and the MPI [6] was 98. The IC50 [7] was 4.92 µg/mL, the IC80 [7] was 18.3 µg/mL and the MPI [7] was 97. It also gave an IC50 [8] of 3.4 µg/mL, an IC80 [8] of 20.2 µg/mL and an MPI [8] of 97. For the same substance, the IC50 [9] was 8.98 µg/mL, the IC80 [9] was 48 µg/mL and the MPI [9] was 92. The IC50 [10] was 4.34 µg/mL, the IC80 [10] was 21.4 µg/mL and the MPI [10] was 98. The IC50 [11] was 13.1 µg/mL, the IC80 [11] was 32.2 µg/mL and the MPI [11] was 93. It also gave an IC50 [12] of 4.08 µg/mL, an IC80 [12] of 30.1 µg/mL and an MPI [12] of 89.

VRC01 (antibody) showed an IC50 (Titer in TZM.bl cells) [13] of 0.21 µg/mL, an IC80 (Titer in TZM.bl cells) [13] of 0.59 µg/mL and an IC50 (Titer in TZM.bl cells) [2] of 0.71 µg/mL. It also gave an IC80 (Titer in TZM.bl cells) [2] of 2.85 µg/mL, an IC50 (Titer in TZM.bl cells) [3] of 0.21 µg/mL and an IC80 (Titer in TZM.bl cells) [3] of 0.53 µg/mL. For the same substance, the IC80 (Titer in TZM.bl cells) [4] was 23 µg/mL, the IC50 (Titer in TZM.bl cells) [5] was 0.61 µg/mL and the IC80 (Titer in TZM.bl cells) [5] was 1.82 µg/mL. It also gave an IC50 (Titer in TZM.bl cells) [14] of 0.51 µg/mL, an IC80 (Titer in TZM.bl cells) [14] of 1.54 µg/mL and an IC50 (Titer in TZM.bl cells) [6] of 0.05 µg/mL. For the same substance, the IC80 (Titer in TZM.bl cells) [6] was 0.23 µg/mL, the IC50 (Titer in TZM.bl cells) [7] was 0.08 µg/mL and the IC80 (Titer in TZM.bl cells) [7] was 0.29 µg/mL. The IC50 (Titer in TZM.bl cells) [15] was over 50 µg/mL, the IC80 (Titer in TZM.bl cells) [15] was over 50 µg/mL and the IC50 (Titer in TZM.bl cells) [8] was over 10 µg/mL. For the same substance, the IC80 (Titer in TZM.bl cells) [8] was over 10 µg/mL, the IC50 (Titer in TZM.bl cells) [16] was over 50 µg/mL and the IC80 (Titer in TZM.bl cells) [16] was over 50 µg/mL. It also gave an IC50 (Titer in TZM.bl cells) [9] of 0.42 µg/mL, an IC80 (Titer in TZM.bl cells) [9] of 1.44 µg/mL and an IC50 (Titer in TZM.bl cells) [17] of 0.7 µg/mL. The IC80 (Titer in TZM.bl cells) [17] was 2.7 µg/mL, the IC50 (Titer in TZM.bl cells) [18] was 0.37 µg/mL and the IC80 (Titer in TZM.bl cells) [18] was 1.1 µg/mL. For the same substance, the IC50 (Titer in TZM.bl cells) [10] was 0.06 µg/mL, the IC80 (Titer in TZM.bl cells) [10] was 0.185 µg/mL and the IC50 (Titer in TZM.bl cells) [19] was 0.02 µg/mL. The IC80 (Titer in TZM.bl cells) [19] was 0.08 µg/mL, the IC50 (Titer in TZM.bl cells) [12] was 0.06 µg/mL and the IC80 (Titer in TZM.bl cells) [12] was 0.25 µg/mL.
